Test results: article PMC5995851, “Conformational rearrangements of the C1 ring in KaiC measure the timing of assembly with KaiB” (Scientific Reports, 2018)

Assays:
[1] = molecular target: T1, KaiC^S157W-D/T (S157W/S431D, pS/T mimic) (Synechococcus elongatus, UniProt Q79PF4 1-519, S157W | S431D); assay: tryptophan (W157) fluorescence quenching; KaiC^S157W phospho-mimicking mutants with or without an equimolar concentration of KaiB (monomer basis), spectra after 24 h incubation at 30 °C; 50 mM Tris, 150 mM NaCl, 5 mM MgCl2, 0.5 mM EDTA, 1 mM ATP, pH 8.0; excitation 295 nm; settings: both partners purified
T1 construct: Circadian clock protein KaiC, Synechococcus elongatus, with C1 and C2 domains; Trp probe S157W and phospho-mimicking S431D
T1 sequence: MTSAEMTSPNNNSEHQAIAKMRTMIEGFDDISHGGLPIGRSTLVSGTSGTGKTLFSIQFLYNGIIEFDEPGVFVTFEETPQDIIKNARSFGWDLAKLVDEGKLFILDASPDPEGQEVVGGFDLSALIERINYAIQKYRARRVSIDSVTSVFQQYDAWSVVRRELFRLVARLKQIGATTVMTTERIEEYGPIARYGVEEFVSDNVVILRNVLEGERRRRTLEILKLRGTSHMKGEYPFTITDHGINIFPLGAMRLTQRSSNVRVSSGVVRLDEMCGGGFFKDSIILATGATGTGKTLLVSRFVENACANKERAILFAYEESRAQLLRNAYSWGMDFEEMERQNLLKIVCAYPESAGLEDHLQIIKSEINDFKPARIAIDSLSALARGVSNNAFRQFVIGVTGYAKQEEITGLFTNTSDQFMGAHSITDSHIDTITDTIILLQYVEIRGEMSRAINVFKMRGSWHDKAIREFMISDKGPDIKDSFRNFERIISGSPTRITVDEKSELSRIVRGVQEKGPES

[2] = molecular target: T2, KaiC^S157W-D/E (S157W/S431D/T432E, pS/pT mimic) (Synechococcus elongatus, UniProt Q79PF4 1-519, S157W | S431D | T432E); assay: other fluorescence titration; time-resolved W157 fluorescence at 30 °C after addition of KaiB to KaiC pre-incubated at 30 °C for at least 2 h; KaiC^S157W-D/E fixed at 3.5 µM, KaiB equimolar or 0.9-10.5 µM; 1 mM ATP buffer, pH 8.0; settings: both partners purified
T2 construct: Circadian clock protein KaiC, Synechococcus elongatus, with C1 and C2 domains; Trp probe S157W and phospho-mimicking S431D/T432E
T2 sequence: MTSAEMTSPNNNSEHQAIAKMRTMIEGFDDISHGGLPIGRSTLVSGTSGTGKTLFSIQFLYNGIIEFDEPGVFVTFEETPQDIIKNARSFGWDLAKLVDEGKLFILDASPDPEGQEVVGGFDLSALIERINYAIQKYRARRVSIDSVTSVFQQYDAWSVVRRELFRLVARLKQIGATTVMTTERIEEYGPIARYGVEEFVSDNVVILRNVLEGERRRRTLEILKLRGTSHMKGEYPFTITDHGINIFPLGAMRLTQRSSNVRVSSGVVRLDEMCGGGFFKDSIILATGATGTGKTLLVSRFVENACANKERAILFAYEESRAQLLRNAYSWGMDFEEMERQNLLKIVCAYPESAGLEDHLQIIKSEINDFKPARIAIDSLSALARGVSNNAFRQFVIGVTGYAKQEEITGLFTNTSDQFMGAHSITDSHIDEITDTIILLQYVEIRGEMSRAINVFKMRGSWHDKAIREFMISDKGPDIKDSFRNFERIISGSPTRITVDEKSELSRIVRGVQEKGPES

binding result [1]: binds
t1/2 of the FIapp decrease after addition of equimolar KaiB [2]: 2.4 h
B1: KaiB (wild type) (natural protein, Synechococcus elongatus, UniProt Q79PF5 1-102, looked up)
chain: MSPRKTYILKLYVAGNTPNSVRALKTLKNILEVEFQGVYALKVIDVLKNPQLAEEDKILATPTLAKVLPLPVRRIIGDLSDREKVLIGLDLLYGELQDSDDF
notes: Circadian clock protein KaiB, Synechococcus elongatus, wild type
